These results are taken from paper PMC5709234 (Journal of the American Society for Mass Spectrometry, 2017).

Series [1] deals with the molecule itself. In words: native MS.
Series [2] deals with the molecule itself. In words: native MS. The source holds these as a separate data set.

Where “and” joins values, the source holds several entries; their conditions need not be identical. Equal values may be shown once. Read-outs that look alike come from different tables or passages of the source.

B1: Pyruvate kinase type III (Oryctolagus caniculus) (enzyme)
chain: not shown
With B1, the stoichiometry N (in general, the number of molecules, sites or subunits per partner or assembly) in “native MS [1]” was 2 and 4.

B2: Enolase 1 (S. cerevisiae) (enzyme, UniProt P00924 2-437, looked up)
chain: AVSKVYARSVYDSRGNPTVEVELTTEKGVFRSIVPSGASTGVHEALEMRDGDKSKWMGKGVLHAVKNVNDVIAPAFVKANIDVKDQKAVDDFLISLDGTANKSKLGANAILGVSLAASRAAAAEKNVPLYKHLADLSKSKTSPYVLPVPFLNVLNGGSHAGGALALQEFMIAPTGAKTFAEALRIGSEVYHNLKSLTKKRYGASAGNVGDEGGVAPNIQTAEEALDLIVDAIKAAGHDGKVKIGLDCASSEFFKDGKYDLDFKNPNSDKSKWLTGPQLADLYHSLMKRYPIVSIEDPFAEDDWEAWSHFFKTAGIQIVADDLTVTNPKRIATAIEKKAADALLLKVNQIGTLSESIKAAQDSFAAGWGVMVSHRSGETEDTFIADLVVGLRTGQIKTGAPARSERLAKLNQLLRIEEELGDNAVFAGENFHHGDKL
Regarding B2, in “native MS [2]”, the “stoichiometry N” value came out at 2.
